Experimental data taken from patent publication US20250129145A1 (Ablynx, published 2025).

How the values were obtained:
[1] = target: T1, human serum albumin (human, UniProt P02768 25-609); assay: SPR Biacore 8K+, HSA immobilized (C1 chip), pH 7.4, bivalent analyte fit (KD1)
T1 construct: Bought protein; also called HSA
Experimental: (§1) The affinities of the purified multivalent albumin binding constructs for HSA at pH 7.4 was determined on a Biacore 8K+ instrument. HSA (Sigma-Aldrich—Sigma, Cat No. A8763) was immobilized on a Series S Sensor Chip C1. The multivalent albumin binding proteins as described in Table 12 above were injected at 9 different concentrations (between 1.6 and 2500 nM) and allowed to associate for 120 s at 30 μL/min and dissociate for 600 s.

[2] = target: T1, human serum albumin; assay: SPR Biacore 8K+, HSA immobilized (C1 chip), pH 7.4, bivalent analyte fit (kd1)
Experimental: as §1

[3] = target: T1, human serum albumin; assay: SPR Biacore 8K+, HSA immobilized (C1 chip), pH 7.4, bivalent analyte fit (ka1)
Experimental: as §1

[4] = target: T1, human serum albumin; assay: SPR, pH 7.4, immobilized HSA density ~100 RU
Experimental: (§2) The purified multivalent albumin binding constructs were also tested in SPR on different densities of HSA (100 RU until 6700 RU) to detect avidity.

[5] = target: T1, human serum albumin; assay: SPR, pH 7.4, immobilized HSA density ~500 RU
Experimental: as §2

[6] = target: T1, human serum albumin; assay: SPR Biacore 8K+, HSA immobilized (C1 chip), pH 7.4, bivalent analyte fit
Experimental: as §1

[7] = target: T1, human serum albumin; assay: SPR, pH 7.4, immobilized HSA density ~3000 RU
Experimental: as §2

[8] = target: T1, human serum albumin; assay: SPR, pH 7.4, immobilized HSA density ~6700 RU
Experimental: as §2

[9] = target: T2, mouse serum albumin (mouse, UniProt P07724 25-608); assay: SPR ProteOn XPR36, MSA immobilized (GLC sensor), pH 6.0, Langmuir 1:1 fit
T2 construct: Bought protein; also called MSA
T2 sequence (P07724 25-608 limits assumed): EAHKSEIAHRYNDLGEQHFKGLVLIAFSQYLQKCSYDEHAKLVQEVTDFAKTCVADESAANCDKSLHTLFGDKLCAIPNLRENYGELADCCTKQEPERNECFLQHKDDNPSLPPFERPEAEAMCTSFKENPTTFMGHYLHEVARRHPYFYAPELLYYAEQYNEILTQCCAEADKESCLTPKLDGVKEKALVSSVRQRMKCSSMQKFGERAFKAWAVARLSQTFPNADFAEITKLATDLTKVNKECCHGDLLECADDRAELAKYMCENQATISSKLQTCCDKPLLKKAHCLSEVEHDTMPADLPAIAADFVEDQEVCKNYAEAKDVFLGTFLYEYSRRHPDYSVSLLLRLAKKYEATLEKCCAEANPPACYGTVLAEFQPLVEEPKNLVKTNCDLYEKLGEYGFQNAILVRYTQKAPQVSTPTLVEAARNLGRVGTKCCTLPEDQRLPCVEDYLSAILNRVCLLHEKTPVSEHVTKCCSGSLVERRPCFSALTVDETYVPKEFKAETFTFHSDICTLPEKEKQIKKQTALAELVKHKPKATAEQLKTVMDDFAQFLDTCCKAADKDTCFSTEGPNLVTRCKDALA
Experimental: (§3) In a first experiment, the affinities of monovalent (ALB00223) and a bivalent ALB23002 construct (T032200003) for human and mouse serum albumin (HSA and MSA, respectively) at pH 6.0 and pH 7.4 were determined on a ProteOn XPR36 instrument (Bio-rad Laboratories, Inc.). HSA or MSA (HSA: Sigma-Aldrich—Sigma, Cat No. A8763; MSA: Albumin Bioscience, Cat No. 2601) was immobilized via amine coupling on a GLC sensor (short matrix, normal capacity). The constructs were injected at 6 different concentrations (between 0.95 and 500 nM) and allowed to associate for 120 s at 45 μL/min and dissociate for 600 s. Evaluation of the sensorgrams was based on the Kinetic Langmuir 1:1 (simultaneous ka/kd) fit.

[10] = target: T2, mouse serum albumin; assay: SPR ProteOn XPR36, MSA immobilized (GLC sensor), pH 7.4, Langmuir 1:1 fit
Experimental: as §3

[11] = target: T1, human serum albumin; assay: SPR ProteOn XPR36, HSA immobilized (GLC sensor), pH 7.4, Langmuir 1:1 fit
Experimental: as §3

[12] = target: T1, human serum albumin; assay: SPR ProteOn XPR36, HSA immobilized (GLC sensor), pH 6.0, Langmuir 1:1 fit
Experimental: as §3

| Binder | Kd [1] [nM] | koff [2] [s⁻¹] | kon [3] [M⁻¹ s⁻¹] | koff [4] [s⁻¹] | koff [5] [s⁻¹] | ka2 (bivalent analyte fit) [6] [M⁻¹ s⁻¹] | kd2 (bivalent analyte fit) [6] [s⁻¹] | koff [7] [s⁻¹] | koff [8] [s⁻¹] | also measured |
| --- | --- | --- | --- | --- | --- | --- | --- | --- | --- | --- |
| TPP-66093 (VHH, also called ALBX00002-35GS-ALB23002-A; ALBX00002-35GS-Alb223) EVQLVESGGGVVQPGGSLRLSCAASGLTFSSYAMGWFRQAPGKERERVVSISRGGGYTYYADSVKGRFTISRDNSKNTVYLQMNSLRPEDTALYYCAAARYWATGSEYEFDYWGQGTLVTVSSGGGGSGGGGSGGGGSGGGGSGGGGSGGGGSGGGGSEVQLVESGGGVVQPGGSLRLSCAASGFTFRSFGMSWVRQAPGKGPEWVSSISGSGSDTLYADSVKGRFTISRDNSKNTLYLQMNSLRPEDTALYYCTIGGSLSRSSQGTLVTVSSA | 0.66 | 0.00012 | 180000 | 0.00011 | 8.6e-05 | 0.00012 | 0.00084 | 6.6e-05 | 5.2e-05 | – |
| TPP-66095 (other, also called DARPIN-35GS-ALB23002-A; DARPIN-35GS-Alb223) DLGKKLLEAARAGQDDEVRELLKAGADVNAKDYFSHTPLHLAARNGHLKIVEVLLKAGADVNAKDFAGKTPLHLAANEGHLEIVEVLLKAGADVNAQDIFGKTPADIAADAGHEDIAEVLQKAAGGGGSGGGGSGGGGSGGGGSGGGGSGGGGSGGGGSEVQLVESGGGVVQPGGSLRLSCAASGFTFRSFGMSWVRQAPGKGPEWVSSISGSGSDTLYADSVKGRFTISRDNSKNTLYLQMNSLRPEDTALYYCTIGGSLSRSSQGTLVTVSSA | – | – | – | 0.00021 | 0.00038 | – | – | 0.00016 | 8.3e-05 | – |
| ALB00223 (VHH, also called ALB00223-A; Alb223) VHH: EVQLVESGGGVVQPGGSLRLSCAASGFTFRSFGMSWVRQAPGKGPEWVSSISGSGSDTLYADSVKGRFTISRDNSKNTLYLQMNSLRPEDTALYYCTIGGSLSRSSQGTLVTVSS | – | – | – | – | – | – | – | – | – | Kd [9]: 6.02 nM; koff [9]: 0.00618 s⁻¹; kon [9]: 1.03e+06 M⁻¹ s⁻¹; Kd [10]: 9.09 nM; koff [10]: 0.00697 s⁻¹; kon [10]: 767000 M⁻¹ s⁻¹; Kd [11]: 1.37 nM; koff [11]: 0.000809 s⁻¹; kon [11]: 592000 M⁻¹ s⁻¹; Kd [12]: 0.69 nM; koff [12]: 0.000593 s⁻¹; kon [12]: 853000 M⁻¹ s⁻¹ |
| IRR00164 (VHH, also called CNB-9GS-CNB-9GS-CNB-9GS-ALB23002-A; CNB-CNB-CNB-Alb223) VHH: EVQLVESGGGVVQPGGSLRLSCAASGFTFRSFGMSWVRQAPGKGPEWVSSISGSGSDTLYADSVKGRFTISRDNSKNTLYLQMNSLRPEDTALYYCTIGGSLSRSSQGTLVTVSS | – | – | – | – | 0.002 | – | – | 0.0016 | 0.0012 | – |
| TPP-66101 (other, also called DARPIN-35GS-ALB23002-35GS-ALB23002-A) DLGKKLLEAARAGQDDEVRELLKAGADVNAKDYFSHTPLHLAARNGHLKIVEVLLKAGADVNAKDFAGKTPLHLAANEGHLEIVEVLLKAGADVNAQDIFGKTPADIAADAGHEDIAEVLQKAAGGGGSGGGGSGGGGSGGGGSGGGGSGGGGSGGGGSEVQLVESGGGVVQPGGSLRLSCAASGFTFRSFGMSWVRQAPGKGPEWVSSISGSGSDTLYADSVKGRFTISRDNSKNTLYLQMNSLRPEDTALYYCTIGGSLSRSSQGTLVTVSSGGGGSGGGGSGGGGSGGGGSGGGGSGGGGSGGGGSEVQLVESGGGVVQPGGSLRLSCAASGFTFRSFGMSWVRQAPGKGPEWVSSISGSGSDTLYADSVKGRFTISRDNSKNTLYLQMNSLRPEDTALYYCTIGGSLSRSSQGTLVTVSSA | 5 | 0.0015 | 300000 | 0.00076 | 0.00023 | 95 | 65 | 0.0001 | 4e-05 | – |
| TPP-66099 (VHH, also called ALB23002-35GS-ALB23002-35GS-ALB23002-A) EVQLVESGGGVVQPGGSLRLSCAASGFTFRSFGMSWVRQAPGKGPEWVSSISGSGSDTLYADSVKGRFTISRDNSKNTLYLQMNSLRPEDTALYYCTIGGSLSRSSQGTLVTVSSGGGGSGGGGSGGGGSGGGGSGGGGSGGGGSGGGGSEVQLVESGGGVVQPGGSLRLSCAASGFTFRSFGMSWVRQAPGKGPEWVSSISGSGSDTLYADSVKGRFTISRDNSKNTLYLQMNSLRPEDTALYYCTIGGSLSRSSQGTLVTVSSGGGGSGGGGSGGGGSGGGGSGGGGSGGGGSGGGGSEVQLVESGGGVVQPGGSLRLSCAASGFTFRSFGMSWVRQAPGKGPEWVSSISGSGSDTLYADSVKGRFTISRDNSKNTLYLQMNSLRPEDTALYYCTIGGSLSRSSQGTLVTVSSA | 1.4 | 0.0005 | 370000 | 0.00041 | 0.00018 | 0.0022 | 0.0038 | 7.2e-05 | 3.6e-05 | – |
| TPP-66102 (VHH, also called ALB23002-35GS-ALB23002-35GS-ALB23002-35GS-ALB23002-A) EVQLVESGGGVVQPGGSLRLSCAASGFTFRSFGMSWVRQAPGKGPEWVSSISGSGSDTLYADSVKGRFTISRDNSKNTLYLQMNSLRPEDTALYYCTIGGSLSRSSQGTLVTVSSGGGGSGGGGSGGGGSGGGGSGGGGSGGGGSGGGGSEVQLVESGGGVVQPGGSLRLSCAASGFTFRSFGMSWVRQAPGKGPEWVSSISGSGSDTLYADSVKGRFTISRDNSKNTLYLQMNSLRPEDTALYYCTIGGSLSRSSQGTLVTVSSGGGGSGGGGSGGGGSGGGGSGGGGSGGGGSGGGGSEVQLVESGGGVVQPGGSLRLSCAASGFTFRSFGMSWVRQAPGKGPEWVSSISGSGSDTLYADSVKGRFTISRDNSKNTLYLQMNSLRPEDTALYYCTIGGSLSRSSQGTLVTVSSGGGGSGGGGSGGGGSGGGGSGGGGSGGGGSGGGGSEVQLVESGGGVVQPGGSLRLSCAASGFTFRSFGMSWVRQAPGKGPEWVSSISGSGSDTLYADSVKGRFTISRDNSKNTLYLQMNSLRPEDTALYYCTIGGSLSRSSQGTLVTVSSA | 2 | 0.00055 | 280000 | 0.00043 | 0.00012 | 0.005 | 0.0066 | 3.6e-05 | 1.4e-05 | – |
| TPP-66100 (VHH, also called ALBX00002-35GS-T023500029-35GS-ALB23002-A) EVQLVESGGGVVQPGGSLRLSCAASGLTFSSYAMGWFRQAPGKERERVVSISRGGGYTYYADSVKGRFTISRDNSKNTVYLQMNSLRPEDTALYYCAAARYWATGSEYEFDYWGQGTLVTVSSGGGGSGGGGSGGGGSGGGGSGGGGSGGGGSGGGGSEVQLVESGGGVVQPGDSLRLSCAASGGTFSTYVMGWFRQAPGKEREFVSAISQNSIHTYYANSVKGRFTISRDNSKNTVYLQLNSLRPEDTALYYCAASRFTSWYTADYEYDYWGQGTLVTVSSGGGGSGGGGSGGGGSGGGGSGGGGSGGGGSGGGGSEVQLVESGGGVVQPGGSLRLSCAASGFTFRSFGMSWVRQAPGKGPEWVSSISGSGSDTLYADSVKGRFTISRDNSKNTLYLQMNSLRPEDTALYYCTIGGSLSRSSQGTLVTVSSA | 1.7 | 0.00034 | 200000 | 0.00027 | 0.00032 | 0.0074 | 0.026 | 0.00036 | 0.00032 | – |
| TPP-66097 (other, also called ABD-35GS-ALB23002-A; ABD-35GS-Alb223) LKEAKEKAIEELKKAGITSDYYFDLINKAKTVEGVNALKDEILKAGGGGSGGGGSGGGGSGGGGSGGGGSGGGGSGGGGSEVQLVESGGGVVQPGGSLRLSCAASGFTFRSFGMSWVRQAPGKGPEWVSSISGSGSDTLYADSVKGRFTISRDNSKNTLYLQMNSLRPEDTALYYCTIGGSLSRSSQGTLVTVSSA | 0.082 | 1.5e-05 | 180000 | 7.4e-05 | 0.00012 | 0.0023 | 0.0088 | 8.4e-05 | 6e-05 | – |
| TPP-66094 (VHH, also called T023500029-35GS-ALB23002-A; T023500029-35GS-Alb223) EVQLVESGGGVVQPGDSLRLSCAASGGTFSTYVMGWFRQAPGKEREFVSAISQNSIHTYYANSVKGRFTISRDNSKNTVYLQLNSLRPEDTALYYCAASRFTSWYTADYEYDYWGQGTLVTVSSGGGGSGGGGSGGGGSGGGGSGGGGSGGGGSGGGGSEVQLVESGGGVVQPGGSLRLSCAASGFTFRSFGMSWVRQAPGKGPEWVSSISGSGSDTLYADSVKGRFTISRDNSKNTLYLQMNSLRPEDTALYYCTIGGSLSRSSQGTLVTVSSA | 0.49 | 0.00013 | 270000 | 0.00012 | 9.3e-05 | 0.00027 | 0.0022 | 7.6e-05 | 5.6e-05 | – |
